Measurements reported in patent US7618787B2, “Method of screening compound capable of accelerating or inhibiting apoptosis, apoptosis accelarator and apoptosis inhibitor” (Hisamitsu Pharmaceutical Co., Inc., priority 2004, dated 2009).

Key:
p73 [1] = target: T1, p73 (Homo sapiens, UniProt O15350); test: p73 protein level (stabilization) by immunoblot in cotransfected COS7 cells; type: cell-based; settings: COS7 cotransfection
T1 construct: expressed in transfected cells; host or cells: COS7
T1 sequence (O15350 1-499 isoform O15350-2): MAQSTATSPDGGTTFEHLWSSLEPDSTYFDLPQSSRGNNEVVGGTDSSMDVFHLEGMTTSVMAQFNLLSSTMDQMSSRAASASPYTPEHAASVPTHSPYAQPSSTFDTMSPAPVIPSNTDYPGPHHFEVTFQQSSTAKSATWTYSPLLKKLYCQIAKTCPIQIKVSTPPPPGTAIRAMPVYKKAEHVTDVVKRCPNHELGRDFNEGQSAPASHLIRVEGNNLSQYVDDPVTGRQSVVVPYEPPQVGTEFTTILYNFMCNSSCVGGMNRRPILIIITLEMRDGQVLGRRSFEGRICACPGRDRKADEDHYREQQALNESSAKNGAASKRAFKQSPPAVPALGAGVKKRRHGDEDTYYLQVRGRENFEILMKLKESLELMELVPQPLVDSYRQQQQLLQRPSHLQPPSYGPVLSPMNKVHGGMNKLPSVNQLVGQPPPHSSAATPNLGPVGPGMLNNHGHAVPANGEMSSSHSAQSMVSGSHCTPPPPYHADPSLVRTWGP
Description: (§1) Cells were transiently transfected with a total of 2 μg of expression plasmids. After 48 hours of the transfection, the cells were washed with ice-cold PBS and suspended in lysis buffer (pH 8.0; which contained 25 mM Tris-Cl, 137 mM sodium chloride, 1% Triton X-100, 1 mM phenylmethylsulfonyl fluoride (PMSF), and protease inhibitor mix (Roche Molecular Biochemicals)), followed by brief sonication. After centrifugation at 15000 rpm for 10 minutes, the supernatant was collected and assayed for protein concentrations by the Bradford assay (Bio-Rad). Equal amounts of lysates (protein amount: 50 μg) from the whole cells were denatured by boiling in Laemmli SDS-sample buffer, then separated on 10% SDS-polyacrylamide gel (SDS-PAGE), and transferred at room temperature for 1 hour to polyvinylidene difluoride (PVDF) membranes (Immobilon-P; Millipore) in Tris-glycine buffer containing 10% methanol. The membranes were blocked at room temperature for 1 hour with Tris-buffered saline (TBS-T) containing 5% skim milk and 0.1% Tween 20.
(§2) As previously reported, some protein kinases (e.g., c-Abl and PKCδ) that interact with p73 can stabilize p73. To confirm whether IKK-α influenced the stabilization of p73, COS7 cells were transfected with a constant amount of HA-p73α expression plasmid together with or without varying amounts of IKK-α expression plasmids and examined for HA-p73α protein levels. […] Next, whether IKK-β influenced the stabilization of p73 and p53 was investigated by transient transfection.

p73 [2] = target: T2, p73 (Homo sapiens, UniProt O15350); test: as above; type: cell-based; settings: COS7 cotransfection (FIG. 14, 15, 29)
T2 construct: expressed in transfected cells; host or cells: COS7
T2 sequence (O15350 1-636): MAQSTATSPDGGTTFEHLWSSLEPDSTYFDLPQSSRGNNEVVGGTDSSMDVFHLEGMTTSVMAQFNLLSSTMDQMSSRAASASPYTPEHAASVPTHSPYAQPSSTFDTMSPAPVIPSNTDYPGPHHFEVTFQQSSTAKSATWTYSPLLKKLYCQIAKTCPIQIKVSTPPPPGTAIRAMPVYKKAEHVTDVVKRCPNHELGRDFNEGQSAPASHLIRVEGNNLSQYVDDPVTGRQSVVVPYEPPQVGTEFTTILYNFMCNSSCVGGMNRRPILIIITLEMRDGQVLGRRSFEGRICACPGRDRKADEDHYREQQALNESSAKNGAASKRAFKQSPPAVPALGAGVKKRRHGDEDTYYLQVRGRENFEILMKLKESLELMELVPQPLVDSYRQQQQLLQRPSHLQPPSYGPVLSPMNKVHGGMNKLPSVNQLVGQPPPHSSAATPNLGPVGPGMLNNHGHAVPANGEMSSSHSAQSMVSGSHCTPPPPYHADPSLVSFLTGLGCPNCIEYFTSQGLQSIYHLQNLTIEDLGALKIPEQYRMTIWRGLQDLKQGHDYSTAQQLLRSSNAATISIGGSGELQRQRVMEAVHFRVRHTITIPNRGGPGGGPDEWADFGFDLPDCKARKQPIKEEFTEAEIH
Description: as §1, §2

GST-p73 fusion proteins = target: T3, GST-p73 fusion proteins (Homo sapiens, UniProt O15350); test: In vitro GST pull-down assay; type: binding; settings: in vitro pull-down (FIG. 13)
T3 construct: made in house
T3 sequence (O15350 114-328): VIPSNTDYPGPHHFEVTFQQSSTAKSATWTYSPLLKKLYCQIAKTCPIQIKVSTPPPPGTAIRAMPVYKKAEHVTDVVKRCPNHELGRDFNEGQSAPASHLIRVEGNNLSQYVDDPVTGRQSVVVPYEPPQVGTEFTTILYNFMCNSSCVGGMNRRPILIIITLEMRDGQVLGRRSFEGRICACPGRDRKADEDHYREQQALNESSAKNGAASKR
Description: Whole cell lysates prepared from COS7 cells expressing FLAG-IKK-α were mixed with glutathione S-transferase (GST) or GST fusion protein and incubated with slow shaking at 4° C. for 2 hours in the presence of glutathione-Sepharose beads (Amersham Pharmacia Biotech). Then, the Sepharose beads were precipitated by brief centrifugation and vigorously washed with NETN buffer (pH 7.5; 50 mM Tris-Cl, 150 mM sodium chloride, 0.1% NP-40, and 1 mM EDTA) containing 1 mM PMSF. The proteins bound with the beads were eluted therefrom by the addition of 30 μL of 2×Laemmli SDS sample buffer, then boiled for 5 minutes, and separated with 10% SDS-PAGE. The proteins were transferred to PVDF membranes and immunoblotted with […] as described above.
To investigate whether IKK-α interacted with p73 in cultured mammal cells, whole cell lysates were prepared from transfected COS7 cells, then immunoprecipitated with an anti-FLAG or anti-HA antibody, and analyzed by immunoblot using an anti-p73 or anti-FLAG antibody, respectively. […] Likewise, HA-p73β was co-immunoprecipitated with FLAG-IKK-α (data not shown). […] To identify determinants of p73 participating in the interaction with IKK-α, several deletion mutants of p73 fused to GST were prepared and examined for their abilities to bind to FLAG-IKK-α by in-vitro pull-down assay. […]

p73 [3] = target: T1, p73; test: Co-immunoprecipitation with p73 in transfected COS7 cells; type: binding; settings: COS7, data not shown
Description: Whole cell lysates were centrifuged at 15000 rpm for 15 minutes to remove cell debris. The obtained supernatant was pretreated at 4° C. for 30 minutes with protein G-Sepharose (50% slurry, 30 μL; Amersham Pharmacia Biotech). After centrifugation, the supernatant was incubated at 4° C. for 2 hours with an anti-HA polyclonal (Medical and Biological Laboratories) or anti-FLAG monoclonal antibody. The immunocomplexes were precipitated at 4° C. for 30 minutes with protein G-Sepharose beads. After collection by brief centrifugation, the immunoprecipitates were washed three times with lysis buffer, then suspended in 30 μL of 2×Laemmli SDS sample buffer, and treated at 100° C. for 5 minutes. The supernatant was loaded onto 10% SDS-PAGE and analyzed by immunoblot as described above.
To investigate whether IKK-α interacted with p73 in cultured mammal cells, whole cell lysates were prepared from transfected COS7 cells, then immunoprecipitated with an anti-FLAG or anti-HA antibody, and analyzed by immunoblot using an anti-p73 or anti-FLAG antibody, respectively. […] Likewise, HA-p73β was co-immunoprecipitated with FLAG-IKK-α (data not shown). […] To identify determinants of p73 participating in the interaction with IKK-α, several deletion mutants of p73 fused to GST were prepared and examined for their abilities to bind to FLAG-IKK-α by in-vitro pull-down assay. These mutants were designed on the basis of the functional domains of p73 including transactivation, DNA-binding, oligomerization, and SAM domains (FIG. 12).

B1: IKK-α: IKK-α protein, amino acid sequence SEQ ID NO: 24, expressed from plasmid; apoptosis enhancer (protein, listed as Homo sapiens)
chain: MERPPGLRPGAGGPWEMRERLGTGGFGNVCLYQHRELDLKIAIKSCRLELSTKNRERWCHEIQIMKKLNHANVVKACDVPEELNILIHDVPLLAMEYCSGGDLRKLLNKPENCCGLKESQILSLLSDIGSGIRYLHENKIIHRDLKPENIVLQDVGGKIIHKIIDLGYAKDVDQGSLCTSFVGTLQYLAPELFENKPYTATVDYWSFGTMVFECIAGYRPFLHHLQPFTWHEKIKKKDPKCIFACEEMSGEVRFSSHLPQPNSLCSLIVEPMENWLQLMLNWDPQQRGGPVDLTLKQPRCFVLMDHILNLKIVHILNMTSAKIISFLLPPDESLHSLQSRIERETGINTGSQELLSETGISLDPRKPASQCVLDGVRGCDSYMVYLFDKSKTVYEGPFASRSLSDCVNYIVQDSKIQLPIIQLRKVWAEAVHYVSGLKEDYSRLFQGQRAAMLSLLRYNANLTKMKNTLISASQQLKAKLEFFHKSIQLDLERYSEQMTYGISSEKMLKAWKEMEEKAIHYAEVGVIGYLEDQIMSLHAEIMELQKSPYGRRQGDLMESLEQRAIDLYKQLKHRPSDHSYSDSTEMVKIIVHTVQSQDRVLKELFGHLSKLLGCKQKIIDLLPKVEVALSNIKEADNTVMFMQGKRQKEIWHLLKIACTQSSARSLVGSSLEGAVTPQTSAWLPPTSAEHDHSLSCVVTPQDGETSAQMIEENLNCLGHLSTIIHEANEEQGNSMMNLDWSWLTE
p73 [1]
  stabilization of HA-p73β: stabilized by IKK-α at a degree lower than that of HA-p73α
p73 [2]
  amount of HA-p73α: remarkably increased the amount of HA-p73α
GST-p73 fusion proteins
  binding to GST-p73 deletion mutants: bonded to GST-p73 (114-328) but not to other GST-fused proteins
p73 [3]
  co-immunoprecipitation with HA-p73β: co-immunoprecipitated
